Experimental data reported in the supplement of paper PMC10567573.

B1: TMEM192 (parent)
chain: LWILHLLLECYIQYHHSKIRNRGY
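Note: lentivirally expressed fusions sorted by FACS into six bins by GFP to DsRed ratio, PSI derived from sequencing read proportions per bin multiplied by bin number.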

Variants of: B1
Assay: protein stability index of a GFP-peptide fusion (GPS, HEK-293T) (PSI 1-6); higher = more stable
Settings: c terminus: a fixed tail appended
Variant LWILHLLLECYIQYHHWKIRNRGY [S17W] has a protein stability index of 2.15. LWILHLLLECYIQYHHHKIRNRGY [S17H] showed a protein stability index of 2.86. Variant LWILHLLLECYIQYHHCKIRNRGY [S17C] has a protein stability index of 2.7. With LWILHLLLECYIQYHHQKIRNRGY [S17Q] the protein stability index was 2.37. Variant LWILHLLLECYIQYHHIKIRNRGY [S17I] has a protein stability index of 2.57. Work on LWILHLLLECYIQYHHPKIRNRGY [S17P] yielded a protein stability index of 2.26. Work on LWILHLLLECYIQYHHAKIRNRGY [S17A] yielded a protein stability index of 2.68. Variant LWILHLLLECYIQYHHTKIRNRGY [S17T] has a protein stability index of 2.08. LWILHLLLECYIQYHHYKIRNRGY [S17Y] showed a protein stability index of 4.45. LWILHLLLECYIQYHHVKIRNRGY [S17V] showed a protein stability index of 1.59. LWILHLLLECYIQYHHDKIRNRGY [S17D] showed a protein stability index of 2.04. For LWILHLLLECYIQYHHMKIRNRGY [S17M], the protein stability index was 1.11. LWILHLLLECYIQYHHRKIRNRGY [S17R] gave a protein stability index of 3.51. Variant LWILHLLLECTIQYHHSKIRNRGY [Y11T] has a protein stability index of 2.21. LWILHLLLECQIQYHHSKIRNRGY [Y11Q] showed a protein stability index of 2.06. In the case of LWILHLLLECMIQYHHSKIRNRGY [Y11M], the protein stability index is reported as 2.48. Work on LWILHLLLECHIQYHHSKIRNRGY [Y11H] yielded a protein stability index of 1.77. Variant LWILHLLLECKIQYHHSKIRNRGY [Y11K] has a protein stability index of 1.93. With LWILHLLLECSIQYHHSKIRNRGY [Y11S] the protein stability index was 3.45. Variant LWILHLLLECIIQYHHSKIRNRGY [Y11I] has a protein stability index of 2.47. With LWILHLLLECEIQYHHSKIRNRGY [Y11E] the protein stability index was 3.19. For LWILHLLLECGIQYHHSKIRNRGY [Y11G], the protein stability index was 3.4. Work on LWILHLLLECNIQYHHSKIRNRGY [Y11N] yielded a protein stability index of 3.81. LWILHLLLECAIQYHHSKIRNRGY [Y11A] gave a protein stability index of 2.47. For LWILHLLLECDIQYHHSKIRNRGY [Y11D], the protein stability index was 1.25. With LWILHLLLECFIQYHHSKIRNRGY [Y11F] the protein stability index was 3.94. With LWILHLLLELYIQYHHSKIRNRGY [C10L] the protein stability index was 4.54. Variant LWILHLLLEQYIQYHHSKIRNRGY [C10Q] has a protein stability index of 1.95. LWILHLLLEYYIQYHHSKIRNRGY [C10Y] gave a protein stability index of 2.2. Variant LWILHLLLERYIQYHHSKIRNRGY [C10R] has a protein stability index of 2.03. LWILHLLLESYIQYHHSKIRNRGY [C10S] showed a protein stability index of 1.72. With LWILHLLLEKYIQYHHSKIRNRGY [C10K] the protein stability index was 1.72. With LWILHLLLENYIQYHHSKIRNRGY [C10N] the protein stability index was 1.79. For LWILHLLLEPYIQYHHSKIRNRGY [C10P], the protein stability index was 2.22. For LWILHLLLEGYIQYHHSKIRNRGY [C10G], the protein stability index was 1.18. Variant LWILHLLLEWYIQYHHSKIRNRGY [C10W] has a protein stability index of 1.4. In the case of LWILHLLLEHYIQYHHSKIRNRGY [C10H], the protein stability index is reported as 1.98. In the case of LWILHLLLECYIQYHHSKIRNCGY [R22C], the protein stability index is reported as 4.22. With LWILHLLLECYIQYHHSKIRNPGY [R22P] the protein stability index was 1.67. LWILHLLLECYIQYHHSKIRNAGY [R22A] showed a protein stability index of 2.18. LWILHLLLECYIQYHHSKIRNFGY [R22F] gave a protein stability index of 2.93. In the case of LWILHLLLECYIQYHHSKIRNNGY [R22N], the protein stability index is reported as 2.26. In the case of LWILHLLLECYIQYHHSKIRNIGY [R22I], the protein stability index is reported as 2.69. With LWILHLLLECYIQYHHSKIRNSGY [R22S] the protein stability index was 2.66. Variant LWILHLLLECYIQYHHSKIRNYGY [R22Y] has a protein stability index of 1.98. With LWILHLLLECYIQYHHSKIRNDGY [R22D] the protein stability index was 3.49. Work on LWILHLLLECYIQYHHSKIRNQGY [R22Q] yielded a protein stability index of 3.54. Variant LWILHLLLECYIQYHHSKIRNVGY [R22V] has a protein stability index of 1.17. Variant LWILHLLLECYIQYHHSKIRNKGY [R22K] has a protein stability index of 1.46. For LWILHLLLECYIQYHHSKIRNLGY [R22L], the protein stability index was 2.44. LWILHLLLECYIQYHHSKIRNWGY [R22W] showed a protein stability index of 3.32. For LWILHLLLECYIQYHHSKIKNRGY [R20K], the protein stability index was 1.97. For LWILHLLLECYIQYHHSKIMNRGY [R20M], the protein stability index was 3.17. Work on LWILHLLLECYIQYHHSKIINRGY [R20I] yielded a protein stability index of 3.52. LWILHLLLECYIQYHHSKINNRGY [R20N] gave a protein stability index of 2.26. Work on LWILHLLLECYIQYHHSKISNRGY [R20S] yielded a protein stability index of 2.63. With LWILHLLLECYIQYHHSKIPNRGY [R20P] the protein stability index was 3.47. Variant LWILHLLLECYIQYHHSKIANRGY [R20A] has a protein stability index of 3.18. LWILHLLLECYIQYHHSKIQNRGY [R20Q] showed a protein stability index of 1.87. LWILHLLLECYIQYHHSKIDNRGY [R20D] showed a protein stability index of 2.8. Work on LWILHLLLECYIQYHHSKIHNRGY [R20H] yielded a protein stability index of 2.63. LWILHLLLECYIQYHHSKIWNRGY [R20W] gave a protein stability index of 2.45. For LWILHLLLECYIQYHHSKIYNRGY [R20Y], the protein stability index was 2.69. LWILHLLLECYIQYHHSKILNRGY [R20L] gave a protein stability index of 1.89. For LWILHLLLECYIQYHHSKITNRGY [R20T], the protein stability index was 2.38. LWILHLLLECYIQYHHSKIGNRGY [R20G] gave a protein stability index of 2.05. In the case of LWILHLLLECYIQYHHSKDRNRGY [I19D], the protein stability index is reported as 1.73. With LWILHLLLECYIQYHHSKPRNRGY [I19P] the protein stability index was 2.04. In the case of LWILHLLLECYIQYHHSKGRNRGY [I19G], the protein stability index is reported as 2.44. Variant LWILHLLLECYIQYHHSKRRNRGY [I19R] has a protein stability index of 1.96. Work on LWILHLLLECYIQYHHSKARNRGY [I19A] yielded a protein stability index of 2.33. LWILHLLLECYIQYHHSKVRNRGY [I19V] gave a protein stability index of 2.01. Work on LWILHLLLECYIQYHHSKSRNRGY [I19S] yielded a protein stability index of 1.78. For LWILHLLLECYIQYHHSKWRNRGY [I19W], the protein stability index was 1.88. Work on LWILHLLLECYIQYHHSKHRNRGY [I19H] yielded a protein stability index of 1.43. LWILHLLLECYIQYHHSKLRNRGY [I19L] showed a protein stability index of 2.14. For LWILHLLLECYIQYHHSKKRNRGY [I19K], the protein stability index was 1.31. LWILHLLLECYIQYHHSKNRNRGY [I19N] gave a protein stability index of 1.88. LWILHLLLECYIQYHHSKQRNRGY [I19Q] gave a protein stability index of 1.55. For LWILHLLLECYIQYHHSKFRNRGY [I19F], the protein stability index was 3.16. With LWILHLLLECYIQYHHSKTRNRGY [I19T] the protein stability index was 1.94. For LWILHLLLECYIQYCHSKIRNRGY [H15C], the protein stability index was 2.19. Variant LWILHLLLECYIQYTHSKIRNRGY [H15T] has a protein stability index of 1.25. Work on LWILHLLLECYIQYYHSKIRNRGY [H15Y] yielded a protein stability index of 2.86. LWILHLLLECYIQYPHSKIRNRGY [H15P] gave a protein stability index of 2.18. With LWILHLLLECYIQYRHSKIRNRGY [H15R] the protein stability index was 2.33. LWILHLLLECYIQYLHSKIRNRGY [H15L] gave a protein stability index of 2.14. Work on LWILHLLLECYIQYQHSKIRNRGY [H15Q] yielded a protein stability index of 2.24. For LWILHLLLECYIQYDHSKIRNRGY [H15D], the protein stability index was 1.56. For LWILHLLLECYIQYNHSKIRNRGY [H15N], the protein stability index was 2.7. In the case of LWILHLLLECYIQYSHSKIRNRGY [H15S], the protein stability index is reported as 2.72. LWILHLLLECYIQYMHSKIRNRGY [H15M] gave a protein stability index of 2.41. Variant LWILHLLLECYIQYGHSKIRNRGY [H15G] has a protein stability index of 2.37. In the case of LWILHLLLECYIQYVHSKIRNRGY [H15V], the protein stability index is reported as 2.15.
